Holding throughout (test): cell-based or functional assay
The target in test [1] is MART-1 peptide pulsed on HLA-A02 expressing K562 target cells (human).
The target of test [2] is MART1 peptide-HLA (pHLA) single polypeptide chain (antigenic peptide, β2-microglobulin, HLA-A2 domains) constitutively expressed on K562 target cells (human).
The target of test [3] is MART-1 peptide pulsed on K562 target cells expressing the non-cognate MHC HLA-A01 (human).

A value given as a limit tells only on which side of the number the result lay.

Take “MART-1 (F5) TCR expressed by lentiviral transduction (pCCLc-MND-F5TCR-Myc271), on human CD3+ T cells (TCR; unit assumed)”: the values for the Cytotoxic Killing in test [1], in test [2] and in test [3] were 38.1%, 39.4% and 8.5%, respectively.
In the case of “MART-1 neoTCR (F5) encoded by HR template NTC9385R-TRAC(1k)DTS_P2A.F5.TRBopt.f-P2A.TRA(Va)opt (SEQ ID NO: 10), on edited primary human T cells”, in test [1], the single-cell secretome (Isoplexis), CD8+ T cells producing more than one cytokine was < 40%.
Turning to “MART-1 neoTCR (F5) encoded by HR template NTC9385R-TRAC(1k)DTS_P2A.F5.TRBopt.f-P2A.TRAopt.BGHpA (SEQ ID NO: 9), on edited primary human T cells (TCR; unit assumed)”, the Cytotoxic Killing in test [1] turned out to be 25.6%; in test [2] it was 34.5%; in test [3] it was 10.6%.
On the same counts, the results for “NY-ESO (1G4) TCR expressed by lentiviral transduction (pCCLc-MND-1G4TCR-Myc271), on human CD3+ T cells (TCR; unit assumed)” are 8.7%, 8.4% and 8.3%.

Values taken from patent publication US20200299730A1.
